Where two headings read alike, the source gives them in different places.
Key:
[1] = molecular target: His6X-Hsp20KKK (IAI motif 209-211 mutated to KKK) (Ustilago maydis); experiment: SEC
[2] = molecular target: Ustilago maydis Hsp20, recombinant His6X-Hsp20 (Ustilago maydis); experiment: SEC
[3] = molecular target: Ustilago maydis Hsp20, recombinant His6X-Hsp20 (Ustilago maydis); experiment: SEC; remark: listed apart in the source
[4] = molecular target: actin (Alexa 488 tagged); experiment: FRET or BRET

stoichiometry N [1] | stoichiometry N [2] | stoichiometry N [3] | Kd [4] [nM] | Substance
2 | – | – | – | His6X-Hsp20KKK (IAI motif 209-211 mutated to KKK) (natural protein)
– | 18 | 2 | 99.6 | Ustilago maydis Hsp20, recombinant His6X-Hsp20 (natural protein)
